Results: US20020037286A1 (published 2002)

B1: WASP (endogenous, Jurkat T-cells) (other, human, UniProt P42768 2-502, looked up)
chain: SGGPMGGRPGGRGAPAVQQNIPSTLLQDHENQRLFEMLGRKCLTLATAVVQLYLALPPGAEHWTKEHCGAVCFVKDNPQKSYFIRLYGLQAGRLLWEQELYSQLVYSTPTPFFHTFAGDDCQAGLNFADEDEAQAFRALVQEKIQKRNQRQSGDRRQLPPPPTPANEERRGGLPPLPLHPGGDQGGPPVGPLSLGLATVDIQNPDITSSRYRGLPAPGPSPADKKRSGKKKISKADIGAPSGFKHVSHVGWDPQNGFDVNNLDPDLRSLFSRAGISEAQLTDAETSKLIYDFIEDQGGLEAVRQEMRRQEPLPPPPPPSRGGNQLPRPPIVGGNKGRSGPLPPVPLGIAPPPPTPRGPPPPGRGGPPPPPPPATGRSGPLPPPPPGAGGPPMPPPPPPPPPPPSSGNGPAPPPLPPALVPAGGLAPGGGRGALLDQIRQGIQLNKTPGAPESSALQPPPQSSEGLVGALMHVMQKRSRAIHSSDEGEDQAGDEDEDDEWDD

Key:
Ena/VASP proteins = test: cell-based or functional assay
[1] = biological target: Arp2/3 complex (endogenous, Jurkat T-cells); test: cell-based or functional assay
[2] = biological target: T1, zyxin (endogenous, Jurkat T-cells) (human, UniProt Q15942 2-572); test: co-immunoprecipitation from Jurkat T-cell lysate with WASP mAb 67B4, blot probed with zyxin mAb
T1 sequence (looked up): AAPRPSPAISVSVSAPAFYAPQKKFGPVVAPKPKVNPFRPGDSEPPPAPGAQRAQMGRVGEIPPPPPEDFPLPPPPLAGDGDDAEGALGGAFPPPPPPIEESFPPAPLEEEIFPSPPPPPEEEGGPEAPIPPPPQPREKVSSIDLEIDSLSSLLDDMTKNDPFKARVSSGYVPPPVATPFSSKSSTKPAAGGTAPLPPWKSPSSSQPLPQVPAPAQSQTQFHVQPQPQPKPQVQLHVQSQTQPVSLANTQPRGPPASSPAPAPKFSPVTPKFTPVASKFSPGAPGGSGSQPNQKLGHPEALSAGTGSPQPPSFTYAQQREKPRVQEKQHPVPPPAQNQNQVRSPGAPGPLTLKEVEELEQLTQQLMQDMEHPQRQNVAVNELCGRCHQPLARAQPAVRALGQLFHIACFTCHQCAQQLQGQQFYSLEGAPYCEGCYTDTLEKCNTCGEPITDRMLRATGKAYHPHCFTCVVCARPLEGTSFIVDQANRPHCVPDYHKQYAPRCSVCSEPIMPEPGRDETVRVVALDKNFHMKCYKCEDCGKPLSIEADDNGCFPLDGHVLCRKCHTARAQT
Method: After quick pelleting, stimulated and control cells were resuspended and incubated in DMEM/HEPES containing 15 λg/ml goat anti mouse IgG antibodies at 37° C. for 2 min. Jurkat NP-40 lysates were prepared at 1×10⁸ cells/ml in ice cold NP-40 lysis buffer (1% (v/v) NP-40, 150 mm NaCl, 10 mM Tris-Cl pH 7.8) supplemented with 60 μg/ml chymostatin, 10 g/ml pepstatin, 5 μg/ml leupeptin, 2 μg/ml aprotinin, 2 mM Pefabloc (Roche Diagnostics), 1 mM Na₃VO₄, and 10 mM NaF. […] Immunoprecipitations were carried out according to standard protocols using 0.2 ml of Jurkat NP-40 lysates derived from 2×10^7 cells.
Immunoprecipitates were resolved by SDS-PAGE. As positive control, Jurkat E6-1 lysates were used.

Molecule	length of the contact zone between Jurkat T-cells and anti CD3-coated beads (Ena/VASP proteins) [µm]	length of the contact zone between the beads and Jurkat T-cells [1] [µm]	further results
GFP-ActA-Repeats	3.84	–	–
GFP-ActA-Repeats F>A	5.16	–	–
myc-tagged ScarW (from UniProt Q92558 443-543)	–	5	–
myc-tagged ScarWA (from UniProt Q92558 443-559)	–	3.16	–
B1	–	–	binding result [2]: no binding
